The values below come from PMC7679444.

B1: TMEM59 peptide (residues 268–280), wild type [modified: long spacer (Tds) at the N-terminal end, used for immobilisation; long spacer (Tds) at the N-terminal end, used for immobilisation] [not stated] / GST-HA-ATG16L1(231–607) … (parent)
chain 1: PLPVEQDDDIEVIVDETSDHTEETSPVRAISRAATKRLSQPAGGLLDSITNIFGRRSVSSFPVPQDNVDTHPGSGKEVRVPATALCVFDAHDGEVNAVQFSPGSRLLATGGMDRRVKLWEVFGEKCEFKGSLSGSNAGITSIEFDSAGSYLLAASNDFASRIWTVDDYRLRHTLTGHSGKVLSAKFLLDNARIVSGSHDRTLKLWDLRSKVCIKTVFAGSSCNDIVCTEQCVMSGHFDKKIRFWDIRSESIVREMELLGKITALDLNPERTELLSCSRDDLLKVIDLRTNAIKQTFSAPGFKCGSDWTRVVFSPDGSYVAAGSAEGSLYIWSVLTGKVEKVLSKQHSSSINAVAWSPSGSHVVSVDKGCKAVLWAQY
chain 2: YVPSEKLSIYGDL

Variants of B1 are the subject of this assay. As to the kind of experiment: peptide microarray. As to conditions: with GST-HA-ATG16L1(231–607) [human], parent: 100.

In the case of chain 2 K6H, the percent of parent reads like this: (ligand 200, 50, 20 nM) 28 % WT; (ligand 800, 600, 400 nM) 21 % WT.
As for chain 2 K6R, the percent of parent stood at 8 % WT (ligand 200, 50, 20 nM) and 11 % WT (ligand 800, 600, 400 nM).
On the same counts, the results for chain 2 K6I are 53 % WT and 61 % WT.
Taken in the same sequence, the figures for chain 2 K6V were 50 % WT and 56 % WT.
On the same counts, the results for chain 2 K6M are 7 % WT and 10 % WT.
As for chain 2 K6D, the percent of parent (ligand 200, 50, 20 nM) came out at 7 % WT and the percent of parent (ligand 800, 600, 400 nM) was 6 % WT.
Taken in the same sequence, the figures for chain 2 K6L were 35 % WT and 51 % WT.
On the same counts, the results for chain 2 K6G are 6 % WT and 6 % WT.
On the same counts, the results for chain 2 K6P are 7 % WT and 3 % WT.
As for chain 2 K6W, the percent of parent reads like this: (ligand 200, 50, 20 nM) 126 % WT; (ligand 800, 600, 400 nM) 106 % WT.
On the same counts, the results for chain 2 K6E are 2 % WT and 3 % WT.
On the same counts, the results for chain 2 K6Q are 3 % WT and 4 % WT.
Taken in the same sequence, the figures for chain 2 K6T were 7 % WT and 12 % WT.
Consider chain 2 K6F, for which the percent of parent came to 96 % WT (ligand 200, 50, 20 nM) and 114 % WT (ligand 800, 600, 400 nM).
On the same counts, the results for chain 2 K6S are 8 % WT and 11 % WT.
Turning to chain 2 K6N, the percent of parent runs as follows: (ligand 200, 50, 20 nM) 4 % WT; (ligand 800, 600, 400 nM) 2 % WT.
Taken in the same sequence, the figures for chain 2 K6Y were 105 % WT and 74 % WT.
Taken in the same sequence, the figures for chain 2 K6A were 6 % WT and 7 % WT.
On the same counts, the results for chain 2 S4W are 352 % WT and 187 % WT.
Take chain 2 S4K: the percent of parent reads like this: (ligand 200, 50, 20 nM) 262 % WT; (ligand 800, 600, 400 nM) 180 % WT.
Taken in the same sequence, the figures for chain 2 S4V were 156 % WT and 144 % WT.
On the same counts, the results for chain 2 S4A are 78 % WT and 73 % WT.
On the same counts, the results for chain 2 S4L are 163 % WT and 157 % WT.
As to chain 2 S4Y, the percent of parent is, setting by setting: (ligand 200, 50, 20 nM) 320 % WT; (ligand 800, 600, 400 nM) 188 % WT.
On the same counts, the results for chain 2 S4R are 110 % WT and 110 % WT.
On the same counts, the results for chain 2 S4D are 33 % WT and 29 % WT.
As for chain 2 S4P, the percent of parent worked out at 63 % WT (ligand 200, 50, 20 nM) and 65 % WT (ligand 800, 600, 400 nM).
On the same counts, the results for chain 2 S4G are 49 % WT and 64 % WT.
On the same counts, the results for chain 2 S4M are 31 % WT and 32 % WT.
Taken in the same sequence, the figures for chain 2 S4Q were 88 % WT and 94 % WT.
With chain 2 S4N, the percent of parent is, setting by setting: (ligand 200, 50, 20 nM) 38 % WT; (ligand 800, 600, 400 nM) 30 % WT.
On the same counts, the results for chain 2 S4H are 122 % WT and 106 % WT.
On the same counts, the results for chain 2 S4F are 1 % WT and 1 % WT.
Taken in the same sequence, the figures for chain 2 S4E were 38 % WT and 45 % WT.
Take chain 2 S4I: the percent of parent runs as follows: (ligand 200, 50, 20 nM) 176 % WT; (ligand 800, 600, 400 nM) 155 % WT.
On the same counts, the results for chain 2 S4T are 62 % WT and 69 % WT.
chain 2 D12L: where the note is “ligand 800, 600, 400 nM”, the percent of parent was found to be 110 % WT.
Turning to chain 2 D12M, the percent of parent (ligand 800, 600, 400 nM) was determined as 93 % WT.
Still for that read-out and setting: to chain 2 D12N belongs 128 % WT; to chain 2 D12Q, 105 % WT.
Still for that read-out and setting: to chain 2 D12Y belongs 180 % WT; to chain 2 D12I, 129 % WT.
Same read-out and setting: to chain 2 D12F belongs 138 % WT; to chain 2 D12W, 177 % WT; to chain 2 D12H, 179 % WT.
Consider chain 2 D12R, for which the percent of parent (ligand 800, 600, 400 nM) came to 164 % WT.
On the same count and under the same terms, for chain 2 D12S the value was 128 % WT.
Still for that read-out and setting: for chain 2 D12K the value was 191 % WT.
For the variant chain 2 D12E, the percent of parent (ligand 800, 600, 400 nM) worked out at 173 % WT.
The same measure, in the same setting: for chain 2 D12A the value was 131 % WT; for chain 2 D12P, 145 % WT.
Same read-out and setting: to chain 2 D12V belongs 159 % WT.
Same read-out and setting: for chain 2 D12G the value was 158 % WT; for chain 2 D12T, 133 % WT; for chain 2 Y10I, 21 % WT.
Regarding chain 2 Y10Q, under “ligand 800, 600, 400 nM”, the percent of parent came out at 2 % WT.
On the same count and under the same terms, to chain 2 Y10H belongs 3 % WT; to chain 2 Y10W, 135 % WT; to chain 2 Y10L, 36 % WT.
In the case of chain 2 Y10G, the percent of parent (ligand 800, 600, 400 nM) turned out to be 2 % WT.
Same read-out and setting: for chain 2 Y10A the value was 4 % WT; for chain 2 Y10T, 4 % WT; for chain 2 Y10S, 3 % WT.
The same measure, in the same setting: to chain 2 Y10K belongs 6 % WT.
Same read-out and setting: to chain 2 Y10N belongs 3 % WT.
On to chain 2 Y10D, for which the percent of parent (ligand 800, 600, 400 nM) was determined as 4 % WT.
The same measure, in the same setting: for chain 2 Y10E the value was 2 % WT; for chain 2 Y10R, 5 % WT.
Same read-out and setting: for chain 2 Y10F the value was 106 % WT.
For the variant chain 2 Y10V, for the setting “ligand 800, 600, 400 nM”, the percent of parent amounted to 9 % WT.
Still for that read-out and setting: for chain 2 Y10M the value was 3 % WT; for chain 2 Y10P, 3 % WT.
With chain 2 Y1L, the percent of parent runs as follows: (ligand 200, 50, 20 nM) 44 % WT; (ligand 800, 600, 400 nM) 41 % WT.
On the same counts, the results for chain 2 Y1I are 75 % WT and 79 % WT.
On the same counts, the results for chain 2 Y1H are 30 % WT and 28 % WT.
Taken in the same sequence, the figures for chain 2 Y1D were 10 % WT and 12 % WT.
As to chain 2 Y1K, the percent of parent reads like this: (ligand 200, 50, 20 nM) 17 % WT; (ligand 800, 600, 400 nM) 19 % WT.
Taken in the same sequence, the figures for chain 2 Y1M were 12 % WT and 10 % WT.
Taken in the same sequence, the figures for chain 2 Y1V were 15 % WT and 16 % WT.
On to chain 2 Y1P, for which the percent of parent (ligand 200, 50, 20 nM) worked out at 16 % WT and the percent of parent (ligand 800, 600, 400 nM) amounted to 17 % WT.
Taken in the same sequence, the figures for chain 2 Y1E were 13 % WT and 13 % WT.
On the same counts, the results for chain 2 Y1W are 120 % WT and 121 % WT.
On the same counts, the results for chain 2 Y1S are 29 % WT and 28 % WT.
Consider chain 2 Y1T, for which the percent of parent is, setting by setting: (ligand 200, 50, 20 nM) 17 % WT; (ligand 800, 600, 400 nM) 17 % WT.
As to chain 2 Y1R, the percent of parent worked out at 12 % WT (ligand 200, 50, 20 nM) and 17 % WT (ligand 800, 600, 400 nM).
Taken in the same sequence, the figures for chain 2 Y1G were 94 % WT and 92 % WT.
Taken in the same sequence, the figures for chain 2 Y1F were 139 % WT and 121 % WT.
Taken in the same sequence, the figures for chain 2 Y1A were 17 % WT and 18 % WT.
For the variant chain 2 Y1Q, the percent of parent was determined as 10 % WT (ligand 200, 50, 20 nM) and 12 % WT (ligand 800, 600, 400 nM).
Taken in the same sequence, the figures for chain 2 Y1N were 21 % WT and 22 % WT.
Take chain 2 E5H: the percent of parent by setting is: (ligand 200, 50, 20 nM) 303 % WT; (ligand 800, 600, 400 nM) 183 % WT.
On the same counts, the results for chain 2 E5I are 27 % WT and 32 % WT.
Taken in the same sequence, the figures for chain 2 E5R were 224 % WT and 165 % WT.
Taken in the same sequence, the figures for chain 2 E5L were 42 % WT and 51 % WT.
In the case of chain 2 E5Y, the percent of parent (ligand 200, 50, 20 nM) came to 158 % WT and the percent of parent (ligand 800, 600, 400 nM) was found to be 148 % WT.
Taken in the same sequence, the figures for chain 2 E5W were 105 % WT and 109 % WT.
On the same counts, the results for chain 2 E5D are 123 % WT and 126 % WT.
On the same counts, the results for chain 2 E5P are 92 % WT and 97 % WT.
As to chain 2 E5V, the percent of parent stood at 47 % WT (ligand 200, 50, 20 nM) and 52 % WT (ligand 800, 600, 400 nM).
Taken in the same sequence, the figures for chain 2 E5T were 261 % WT and 179 % WT.
Taken in the same sequence, the figures for chain 2 E5S were 146 % WT and 135 % WT.
On the same counts, the results for chain 2 E5N are 269 % WT and 183 % WT.
As for chain 2 E5F, the percent of parent reads like this: (ligand 200, 50, 20 nM) 22 % WT; (ligand 800, 600, 400 nM) 29 % WT.
On the same counts, the results for chain 2 E5A are 86 % WT and 95 % WT.
Take chain 2 E5Q: the percent of parent (ligand 200, 50, 20 nM) came to 214 % WT and the percent of parent (ligand 800, 600, 400 nM) is 167 % WT.
Turning to chain 2 E5M, the percent of parent amounted to 217 % WT (ligand 200, 50, 20 nM) and 162 % WT (ligand 800, 600, 400 nM).
Taken in the same sequence, the figures for chain 2 E5G were 158 % WT and 142 % WT.
Taken in the same sequence, the figures for chain 2 E5K were 330 % WT and 186 % WT.
On to chain 2 S8L, for which the percent of parent turned out to be 56 % WT (ligand 200, 50, 20 nM) and 74 % WT (ligand 800, 600, 400 nM).
Taken in the same sequence, the figures for chain 2 S8I were 41 % WT and 51 % WT.
For the variant chain 2 S8Y, the percent of parent (ligand 800, 600, 400 nM) worked out at 137 % WT.
chain 2 S8E: the percent of parent reads like this: (ligand 200, 50, 20 nM) 6 % WT; (ligand 800, 600, 400 nM) 11 % WT.
